In patent US20120324602A1:
Blank lines part the entries; values can stand above or below the binder they belong to.

How the values were obtained:
Test in all cases: TAP-MS, N-terminal GS tag
[1] = target: PHD finger protein (AT1G54390) (Arabidopsis thaliana)
[2] = target: T1, SE (SERRATE) (Arabidopsis thaliana)
T1 sequence (Q9ZVD0 1-720, looked up): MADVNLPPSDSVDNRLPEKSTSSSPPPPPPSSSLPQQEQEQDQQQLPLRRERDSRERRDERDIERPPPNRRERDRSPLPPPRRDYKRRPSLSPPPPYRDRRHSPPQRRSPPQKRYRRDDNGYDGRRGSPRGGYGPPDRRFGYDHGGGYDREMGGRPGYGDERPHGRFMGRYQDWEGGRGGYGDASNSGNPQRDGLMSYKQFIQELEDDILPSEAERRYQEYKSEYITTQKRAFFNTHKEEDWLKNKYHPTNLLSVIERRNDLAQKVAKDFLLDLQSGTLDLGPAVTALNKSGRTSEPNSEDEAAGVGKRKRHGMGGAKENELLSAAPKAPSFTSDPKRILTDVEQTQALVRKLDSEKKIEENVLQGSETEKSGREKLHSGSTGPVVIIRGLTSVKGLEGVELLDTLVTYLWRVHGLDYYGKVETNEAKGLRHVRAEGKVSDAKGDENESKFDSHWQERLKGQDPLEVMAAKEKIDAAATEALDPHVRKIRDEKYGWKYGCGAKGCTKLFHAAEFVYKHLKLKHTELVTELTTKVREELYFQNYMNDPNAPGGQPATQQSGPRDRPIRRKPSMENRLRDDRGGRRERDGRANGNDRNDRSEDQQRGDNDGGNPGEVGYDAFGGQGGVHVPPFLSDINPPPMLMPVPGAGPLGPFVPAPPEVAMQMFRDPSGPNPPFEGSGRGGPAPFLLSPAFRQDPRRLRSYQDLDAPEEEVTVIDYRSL

[3] = target: T2, TAF14B, GAS41 (Arabidopsis thaliana)
T2 sequence (Q9FH40 1-268, looked up): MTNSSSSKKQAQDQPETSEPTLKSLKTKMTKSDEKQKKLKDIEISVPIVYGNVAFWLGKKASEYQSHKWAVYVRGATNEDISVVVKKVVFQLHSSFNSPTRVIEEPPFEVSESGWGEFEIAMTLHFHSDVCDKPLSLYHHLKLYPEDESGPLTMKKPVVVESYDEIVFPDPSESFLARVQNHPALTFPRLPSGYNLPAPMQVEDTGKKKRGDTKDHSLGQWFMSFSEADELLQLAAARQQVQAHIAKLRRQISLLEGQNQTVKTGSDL

[4] = target: T3, actin-related protein 7 (ARP7) (Arabidopsis thaliana)
T3 sequence (Q8L4Y5 1-363, looked up): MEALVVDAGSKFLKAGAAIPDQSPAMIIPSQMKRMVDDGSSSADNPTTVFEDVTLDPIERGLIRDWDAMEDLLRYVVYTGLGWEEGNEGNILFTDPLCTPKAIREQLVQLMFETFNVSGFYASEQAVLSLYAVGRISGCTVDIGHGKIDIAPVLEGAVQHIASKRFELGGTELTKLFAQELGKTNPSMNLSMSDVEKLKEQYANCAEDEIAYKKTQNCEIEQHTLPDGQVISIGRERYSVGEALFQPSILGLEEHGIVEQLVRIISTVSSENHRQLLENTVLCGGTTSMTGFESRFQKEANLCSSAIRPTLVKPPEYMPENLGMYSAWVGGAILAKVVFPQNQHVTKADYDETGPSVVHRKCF

[5] = target: chaperonin (AT5G26360) (Arabidopsis thaliana)
[6] = target: protein coding (AT5G14240) (Arabidopsis thaliana)
[7] = target: TCP-1 (Arabidopsis thaliana T-complex protein 1 alpha subunit) (Arabidopsis thaliana)
[8] = target: T4, actin-related protein 4 (ARP4) (Arabidopsis thaliana)
T4 sequence (Q84M92 1-441, looked up): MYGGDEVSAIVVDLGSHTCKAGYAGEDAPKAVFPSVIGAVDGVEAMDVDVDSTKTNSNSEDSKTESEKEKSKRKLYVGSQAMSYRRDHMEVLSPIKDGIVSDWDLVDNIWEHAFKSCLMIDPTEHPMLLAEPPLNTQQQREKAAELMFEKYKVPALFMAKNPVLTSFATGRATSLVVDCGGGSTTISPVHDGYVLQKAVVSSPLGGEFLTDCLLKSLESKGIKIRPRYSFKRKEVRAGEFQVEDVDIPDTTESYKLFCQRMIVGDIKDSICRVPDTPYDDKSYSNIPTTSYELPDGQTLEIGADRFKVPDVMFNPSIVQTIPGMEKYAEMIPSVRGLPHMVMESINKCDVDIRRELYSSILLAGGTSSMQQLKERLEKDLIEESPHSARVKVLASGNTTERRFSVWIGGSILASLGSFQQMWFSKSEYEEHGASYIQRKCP

[9] = target: chaperonin (AT3G02530) (Arabidopsis thaliana)
[10] = target: chaperonin, similar to At3g03960 (AT3G18190) (Arabidopsis thaliana)
[11] = target: chaperonin, similar to At3g18190 (AT3G03960) (Arabidopsis thaliana)
[12] = target: unknown, similar to At5g55210 (AT4G22320) (Arabidopsis thaliana)

Chain of TCP-1 (Arabidopsis thaliana T-complex protein 1 alpha subunit) (Arabidopsis thaliana) (P28769 2-545, one chain of several): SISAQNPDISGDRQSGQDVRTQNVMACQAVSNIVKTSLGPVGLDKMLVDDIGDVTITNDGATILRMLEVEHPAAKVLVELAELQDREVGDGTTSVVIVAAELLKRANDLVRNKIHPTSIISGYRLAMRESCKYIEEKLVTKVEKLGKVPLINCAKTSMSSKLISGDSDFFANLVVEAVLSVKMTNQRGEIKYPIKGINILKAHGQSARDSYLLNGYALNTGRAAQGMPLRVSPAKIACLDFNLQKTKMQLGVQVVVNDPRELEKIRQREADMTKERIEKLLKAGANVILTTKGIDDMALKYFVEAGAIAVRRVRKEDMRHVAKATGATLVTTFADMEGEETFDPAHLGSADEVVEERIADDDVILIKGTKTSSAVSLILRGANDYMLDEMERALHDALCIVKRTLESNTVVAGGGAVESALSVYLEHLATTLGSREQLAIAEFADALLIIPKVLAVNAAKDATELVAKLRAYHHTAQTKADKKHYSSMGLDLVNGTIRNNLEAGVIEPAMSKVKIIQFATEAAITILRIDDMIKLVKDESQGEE

- N-GS (times co-purified) [1]: 1
- N-GS (times co-purified) [2]: 1
- N-GS (times co-purified) [3]: 2
- N-GS (times co-purified) [4]: 2
- N-GS (times co-purified) [5]: 2
- N-GS (times co-purified) [6]: 2
B1: GS-ARP4 (protein, UniProt Q84M92 1-441, looked up)
Actin-related protein 4: T4 sequence (Q84M92 1-441, looked up)
modifications: N-terminal GS tag

- N-GS (times co-purified) [7]: 2
- N-GS (times co-purified) [8]: 1
- N-GS (times co-purified) [9]: 2
- N-GS (times co-purified) [5]: 2
- N-GS (times co-purified) [10]: 2
- N-GS (times co-purified) [11]: 2
- N-GS (times co-purified) [6]: 2
- N-GS (times co-purified) [12]: 2
B2: GS-ARP7 (protein, UniProt Q8L4Y5 1-363, looked up)
Actin-related protein 7: T3 sequence (Q8L4Y5 1-363, looked up)
modifications: N-terminal GS tag
